# Assay results as given in article PMC8042448 (The Journal of Biological Chemistry, 2021).
# B1: recombinant full-length human prion protein huPrP(23–230) (natural protein)
# chain: not shown
# notes: also called full-length huPrP
# B2: C-terminally truncated human prion protein huPrP(23–144) (domain or fragment)
# chain: KKRPKPGGWNTGGSRYPGQGSPGGNRYPPQGGGGWGQPHGGGWGQPHGGGWGQPHGGGWGQPHGGGWGQGGGTHSQWNKPSKPKTNMKHMAGAAAAGAVVGGLGGYMLGSAMSRPIIHFGSD
# notes: also called N-terminal construct huPrP(23–144); huPrP(23–144)exc
# What was measured:
# Settings in all cases: both partners purified
# [1] = target: T1, amyloid β (1–42) oligomers (UniProt P05067 672-713); experiment: […] (40–80 μM) […] (160–300 μM) in 30 mM Tris-HCl pH 7.4; […]
# T1 construct: also called Aβ(1–42)_(oligo); Aβ_(oligo)
# [2] = target: T1, amyloid β (1–42) oligomers; experiment: […]) in 30 mM Tris-HCl pH 7.4; […]
# [3] = target: T1, amyloid β (1–42) oligomers; experiment: co-sedimentation
Binder,binding result [1],stoichiometry N [2],stoichiometry N [3]
B1,binds,,
B2,,8.6,3.7
